Series [1] deals with the molecule itself. Briefly: SEC-MALS; Superose 6 10/300 GL, SEC buffer; molar mass of single proteins and of complexes assembled from purified proteins. On the technique in general: Size exclusion chromatography separates by hydrodynamic size, large species first.
Series [2] deals with T1, Wdr26 (mouse, UniProt Q8C6G8 1-641).
T1 chain: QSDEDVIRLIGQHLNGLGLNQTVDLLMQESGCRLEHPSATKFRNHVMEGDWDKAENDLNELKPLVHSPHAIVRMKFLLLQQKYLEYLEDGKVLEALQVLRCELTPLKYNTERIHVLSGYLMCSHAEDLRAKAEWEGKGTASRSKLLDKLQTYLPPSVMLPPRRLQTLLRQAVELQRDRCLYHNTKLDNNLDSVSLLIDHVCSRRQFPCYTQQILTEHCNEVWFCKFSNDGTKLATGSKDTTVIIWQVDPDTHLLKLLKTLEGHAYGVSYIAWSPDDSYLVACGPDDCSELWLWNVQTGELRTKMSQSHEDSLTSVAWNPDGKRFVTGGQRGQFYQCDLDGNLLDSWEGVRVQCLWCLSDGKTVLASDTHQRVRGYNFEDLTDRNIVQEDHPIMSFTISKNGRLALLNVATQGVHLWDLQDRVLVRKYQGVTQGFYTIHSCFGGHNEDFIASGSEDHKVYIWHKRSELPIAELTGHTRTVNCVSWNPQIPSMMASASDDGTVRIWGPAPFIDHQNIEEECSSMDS
Described as above. The settings on record: both partners purified.

Series [3] deals with T1, Wdr26. Briefly: SEC-MALS; Wdr26 alone, dilution series from four batches, Superose 6 10/300 GL; molar mass at the peak against peak concentration, one-site model; dimer to higher oligomers; saturation not reached. Particulars: both partners purified.

“And” between values parts separate entries of the source, which are not always exact repeats. Equal values may be shown once.

B1: muskelin (natural protein, rat, UniProt Q99PV3 1-735, looked up)
chain: MAAGGAVAAAPECRLLPYALHKWSSFSSTYLPENILVDKPNDQSSRWSSESNYPPQYLILKLERPAIVQNITFGKYEKTHVCNLKKFKVFGGMNEENMTELLSSGLKNDYNKETFTLKHKIDEQMFPCRFIKIVPLLSWGPSFNFSIWYVELSGIDDPDIVQPCLNWYSKYREQEAIRLCLKHFRQHNYTEAFESLQKKTKIALEHPMLTDMHDKLVLKGDFDACEELIEKAVNDGLFNQYISQQEYKPRWSQIIPKSTKGDGEDNRPGMRGGHQMVIDVQTETVYLFGGWDGTQDLADFWAYSVKENQWTCISRDTEKENGPSARSCHKMCIDIQRRQIYTLGRYLDSSVRNSKSLKSDFYRYDIDTNTWMLLSEDTAADGGPKLVFDHQMCMDSEKHMIYTFGGRILTCNGSVDDSRASEPQFSGLFAFNCQCQTWKLLREDSCNAGPEDIQSRIGHCMLFHSKNRCLYVFGGQRSKTYLNDFFSYDVDSDHVDIISDGTKKDSGMVPMTGFTQRATIDPELNEIHVLSGLSKDKEKREENVRNSFWIYDIVRNSWSCVYKNDQAAKENLSKSLQEEEPCPRFAHQLVYDELHKVHYLFGGNPGKSCSPKMRLDDFWSLKLCRPSKDYLLRHCKYLIRKHRFEEKAQMDPLSALKYLQNDLYITVDHSDPEETKEFQLLASALFKSGSDFTALGFSDVDHTYAQRTQLFDTLVNFFPDSMTPPKGNLVDLITL
notes: muskelin, rat, 735 residues
For the molecule B1, in series [1], the “stoichiometry N” value was determined as 4.

B2: Wdr26 (natural protein)
chain: QSDEDVIRLIGQHLNGLGLNQTVDLLMQESGCRLEHPSATKFRNHVMEGDWDKAENDLNELKPLVHSPHAIVRMKFLLLQQKYLEYLEDGKVLEALQVLRCELTPLKYNTERIHVLSGYLMCSHAEDLRAKAEWEGKGTASRSKLLDKLQTYLPPSVMLPPRRLQTLLRQAVELQRDRCLYHNTKLDNNLDSVSLLIDHVCSRRQFPCYTQQILTEHCNEVWFCKFSNDGTKLATGSKDTTVIIWQVDPDTHLLKLLKTLEGHAYGVSYIAWSPDDSYLVACGPDDCSELWLWNVQTGELRTKMSQSHEDSLTSVAWNPDGKRFVTGGQRGQFYQCDLDGNLLDSWEGVRVQCLWCLSDGKTVLASDTHQRVRGYNFEDLTDRNIVQEDHPIMSFTISKNGRLALLNVATQGVHLWDLQDRVLVRKYQGVTQGFYTIHSCFGGHNEDFIASGSEDHKVYIWHKRSELPIAELTGHTRTVNCVSWNPQIPSMMASASDDGTVRIWGPAPFIDHQNIEEECSSMDS
modifications: Supplement: residues 1-101 deleted. Paper gives 625 residues, matching E0CYH4 (CTLH 136-195) rather than the 641-aa Q8C6G8 canonical form (CTLH 136-211). Forms a concentration-dependent oligomer …
As for B2, the “stoichiometry N” value with Wdr26 [2] was found to be 2. In addition, in the series with Wdr26 [3], binding was characterised by a dissociation constant (Kd) of 10 µM; the “stoichiometry N” value is ≥ 8 and 12.

What is called stoichiometry N is a count of units in the complex or per binding partner. In general, Kd refers to the equilibrium constant for the complex coming apart. Low values mean higher affinity, high ones lower affinity.

The values above are taken from publication PMC9932110, “RanBP9 controls the oligomeric state of CTLH complex assemblies” (The Journal of Biological Chemistry, 2023).
